Assay results reported in the nanobody polyreactivity screen of Harvey et al. (2022).

Test: yeast display, Sf9 membrane polyspecificity reagent, FACS + sequencing; frameworks hold sequencing errors
Method in brief: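 Polyreactivity labels are assigned by the sorting gate from which each nanobody was recovered. The gates were low and high (top ~1%), set on anti-HA fluorescence for expression and streptavidin fluorescence for reagent binding. Before sorting, galactose-induced (36–48 hours) yeast display cells were stained for 1 hour at 4 °C with 10% biotinylated, detergent-solubilized Sf9 membrane reagent.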

Sequence | polyreactivity (PSR sort gate)
QVQLVESGGRLVQAGGSLRLSCAASGSIFVHNAMGWYRQAPGKERDLVAANTWSGGSTYYADSVKGRFTISRDNAKNTVYLQMNSVKPEDTAVYYCAAEDVAAQWAYESPTSYWYYYWGQGTQVTVSS | low polyreactivity
QVQLVESGGGLVQAGGSLRLSCAASGRIFFYNTMGWYRQAPGKERELVATISWSGASTYYADSVKGRFTISRDNAKNTVYLQMNSLKPEDTAVDYCAAVTRYTGFDYWGQGTQVTVSS | high polyreactivity
QVQLVESGGGLVQAGGSLRLSCAASGIIFDYNAMGWYRQAPGKERELVAAITSTDNTNYADSVKGRFTISRDNAKNTVYLQMNSLKPEDTAVYYCNSVYWLSVVYAMDYWGQGTQVTVSS | low polyreactivity
QVQLVESGGGLVQAGGSLRLSCAASGITFDGYAMGWYRQAPGKERELVAAIRSSGGSTYYADSVKGRFTISRDNAKNTVYLQMNSLKPEDTAVYYCATDHAQKFRYRSPREYWGQGTQVTVSS | low polyreactivity
QVQLVESGGGFVQAGGSLRLSCAASGSIFRGYAMGWYRQAPGKERELVAAIRYSGARTYYADSVKGRFTISRDNAKNTVYLQMNSLKPEDTAVYYCNARYIRSYDYWGQGTQVTVSS | high polyreactivity
QVQLVESGGGLVQAGGSLRLSCAASGRTFDSYAMGWYRQAPGTETELVAGITRSGDSSYADSVKGRFTISRDNAKNTVYLQMTSLKPEDTAVYYCNKEGTVGGTRGYWGQGTQVTVSS | low polyreactivity
QVQLVESGGGLVQAGGSLRLSCAASGFTFYTNTMGWYRQAPGKERELVAAISSGGSTYYADSVKGRFTISLDNAKNTVYLKMNSLKPEVTAVYYCAVYGPWAYYPMGYWGQGTQVTVSS | low polyreactivity
QVQLVESGGGLVQAGGSLRLSCAGSGSNFDVYTMGWYRKAPGKERELVAAINTGGGSTYYADSVKGRFTISRDNAMNTVYLQMNSLKPEDTAVYYCAASVYHYGPLYYWRQGTQVTVSS | low polyreactivity
QLQLVESGGGLVQAGGSLRLSCAASGLTFNTYAMGWSRQAPAKERELVAAITKGGGRTYYADSVKGRFTISRDNAKNTVYLQMNSLKPEDTAVYYCAVVSWYRYSRYENDYWGQGTQVTVSS | high polyreactivity
QVQLVESGGGLVQAGGSLRLSCAASGLIFRHYAMGWYRQAPGKERELVAAIDYSGGSTYYADSVKGRFTISRDNAKNSVYLQMNSLKPEDTAVYYCAADYFWLYYSEYGYWGQGTQVNVSS | low polyreactivity
QVQLVESGGGLVQAGCSLRLSFAASGRTLVPYSMGWYRQAPGKERELVAAKSSGGSTNYADSVKGRFTISRDNAKNTVYLQMNSLKPEDTAVYSCAAYDSVQKYWILGFDYWGQGTQVTVSS | low polyreactivity
QVQLVESGGGLVQAGGSLRLSCAASGRIFRRYAMGWYRQAPGKERELVAALTRSGGSTYYADSVKGRFTISRDNAKNTVYLQMNSLKPEDTAVYYCYAPSSLGTDYDYWGQGTQVTVSS | high polyreactivity
QVQLVESGGGLVQAGGSLRVSCAASGRTFRYYAMGWYRQAPGKERELVASISDGGSTNYADSVKGRFTISRDNAKNTVYLQMNSQKPEDTAVYYCNAKAYVWYLYDEFGYWGQGTQVTVSS | low polyreactivity
QVQLVESGGGLVQAGGSLRLSCAASGFTLARYAMGWYRQAPGKERELVAGITGGGSTYYADSVKGRFTISRDNAKNTVYLQMNSVKPEDTAVYYCNARTYWKSRLKQYNYWGQVTQVTVSS | high polyreactivity
QVQLVESGGGLVQAGGSLRLSCAASGSNFLYNAMGWYRQAPGKERELVAAITQGGGSTYYADSVKGRFTISLDIAKNTVYLQMISLKPEDTAVYYCNKASFYDAHRLDYWGQGTQVTVSS | high polyreactivity
QVQLVESGGGLVQAGGSLRLSCAASGIIYNPNAMGWYRQAPGKERELVAVISISDSTNYADSVKGRFTISRDNAKNTVYLQMNSLKPEDTAVYDCATASAGTLSVTYYHWYDDWGQGTQVTVSS | low polyreactivity
QVQLVESGGGLVQAGASLRLSCAASGSISKSYAMGWYRQAPGKERELVAAISWRGGSTYADSVKGRFTISRDNAKNTVYLQMNSLKPEDTAVYYCAATNYGTFWGGQSERYDYWGQGTQVTVSS | low polyreactivity
QVLLQESGGGLVQAGGSLRLGCAASGTISPAYYMGRYHQAPGQEREFVAAITYGTNTYYADSVKGRFTISRDNAKNTVYLQMNSLKPEDTAVYYCSATAGYNGAHDYWGQGTQVTVSS | low polyreactivity
QVQLVESGGGLVQEGGSLRLSCAASGSTFNAYAMGWYRQAPGKERELVATINDDGGTTYYADSVKGRFTISRDNAKNTVYLQMNSLKPEDTAVYYCAASGFDTSYETAPSDSWGYDYWGQGTQVTVSS | low polyreactivity
QVQLVESGGGLVQAGGSLRLSCAASGYIFRYYAMGRYRQAPGKERELVAAITARAGRTYYADSVKGRFTISRDNAKNTVYLQMTSLKPEDTAVYYCAAVRTKVWRGPEMDYWGQGTQVNVSS | high polyreactivity
QVQLVESGGGLVQAGGSLRLSCAASGRIFSDYAMGWSSQAPGKERELVATITSGDSTNYADSVKGRFTISRDHAKNTVYLQMNSLKPEDTAVYYCNADRFADYDYWGQGTQVTVSS | low polyreactivity
QVQLVESGGGLVQAGGSLRLSCAASGSIFSYYAMGWYRQAPGKERELVAAISWNGGRTYYADSVKGRFTISRDNAMNTVFLQMNSLKPEDTAVYYCNAVKVYSYGLYGYWGQGTQVTVSS | high polyreactivity

Sequence | polyreactivity (PSR sort gate)
QVQLVESVGGLVQAGGSLRLSCAASGRILRTNALGWYRKAPGKERELVAAISSDGSTYYADSVKGRFTISRDNAKNTVYLQMNSLKPEDTAVYYCAARLFYRGPRFDYWGQGTQVTVSS | low polyreactivity
QVQLVESGGGLVQAGGSLRLSCAASGFTFYSNAMGWYRQAPGKEREMVATITASGGSTYYADSVKGRFTNSRDNAKYTVYVQMYSLKPEDTAVYYCAKDLYWYYRRRGQYVYWGQGTQVTVSS | high polyreactivity
QVQLVESGGGLVQAGGSLRLSCAASGITFNAYVMGWYRQAPGKERELVATISQSGGSTYYADSVKGRFTISRDNAKNTVYLQMNSLKPEDTADYYCAARKYGYSYTVTRYYWGQGTQVTVSS | high polyreactivity
QVQLVESGGGLVQAGGSLRLSSAASGRTFDAYAMGWNRQAPGKERELVAAISGRGGSTTYADSVKGRFTISRDNAKNTVYLQMNSLKPEDTAVYYCAARYPPRFGVVRGYSRSGYWGQGTQVTVSS | high polyreactivity
QVKHVESGGGLVQAGASLRLSCAASGSIFAYNAMGCYIQAPGKERELVATISRGGNTNYADSVKGRFTISRDNAKNSVYLQMNSLKPEDTAVYYCNVLGRDIDHEYGYWGQGTQVTVSS | high polyreactivity
QVQLVESGGGLVQAGCSLRLSCAASGYIFYNAMGWYRQAPGKERELVAAITSGGSTNYADSVKGRFTISRDNAKNTVYFQMNSLKPEDTADYYCNAVVYSPYRYEYWGQGTQVTVSS | low polyreactivity
QVQLVESGGGLVQAGGSLRLSCAASGSTFPRYAMAWYRQAPGKERELVAAISSSGRTYYADSVKGRFTISRDNAKNTFYLQMNSLKPEDTAVYYCNAPVARGEASYYWGQGTQVTVSS | high polyreactivity
QVQLVDSGGGLGQAGGSLRLSCAASGSIFTTNAMGCYRHAPGKERELVAASSSRGGSTYYADSVKGRFTISRDNAKNTVYLQMNSLKPEDTAVYYCAARYRWPIPGTNYEYWGQGTQVTVSS | low polyreactivity
QVQLQESGGGLVQAVGSLRLSCAASGNISDYYDMGWYRQAPGKERKFVAGIDFGAITNYADSVKGRFTISRDNAKNTEYLQMSSLKPEDTAVYYCAAGVYDWYAYDYWGQGTQVTVSS | high polyreactivity
QVQLVESGGGLVQAGGSLRLSCAASGTIFSRNAMGWYRQAPGKERELVAAITGSGSSTYYADSVKGRFTISRDNAKNTVYLQMNSLKPEDTAVYYCNAARVYLSEWGQGTQVTVSS | high polyreactivity
QVQHVESGGGLVQAGGSLRLSCGASGRIFRRYAMGWYSLAAVKEREFVAAISYGGGSTYYADSVKGRFTISRDNAKNTVYLQMNSLKPEDSAVYYCNADVPKSLLLYYPWGYGYWGQGTQVTVSS | low polyreactivity
QVQLVESGGGLVQAGGSLRLSCAASRSIFSYNAMGWYRQAPGKGREFVAAITSSGTRKYYADSVQGRFTISRDNAMNTVYLQLNSLKPEDTAVYYCAADLRYDYWGQGTQVPVSS | high polyreactivity
QVQLVESGGGLVQAGGSLRVSCAASGIIFRIYAMGWYRQAPGKEREFVAAISGSGDSTYYADSVKGRLTISRDNAKTTVYLQMNSLKPEDTAVYYCAADWTLVYYHEDYWGQGTQVTVSS | low polyreactivity
QDHLVETGGGLVQAGGSLRLSCAASGRTLYINAMGWYRQAPGKERELVAAIRRGGSTYADSVKGRFTISRDNAKNTVYLQMNRLKPEDTAVYYCAADVPSGKYKGDYWGQGTQVTVSS | high polyreactivity
QVQLVESGGGLFQAGGSLRLSCAASGSIFVRNAMGWYRKATGKERELVAGISATGGSTYYADSVKGRFTISRDNAKITVYFQMKSLKPEDTAVYYCAKKVSTRFARYRYDYWGQVTQVTVSS | high polyreactivity
QLQLVESGGGLVQAGVSLRLSCASSGRIFALYAMGLYSQAPGKERELVAAITWRGGRTRYADSVKGRFTFSRDNAKYTVYLQMNSLKPEDTAVYYCAKEYVKYQWDYGYFGQGTQVTVSS | high polyreactivity
QVQLVESGGGLVQAGGSLRLSCAASGFTFYIYAMGWYRQAPGKERELVARISSGGRTYYADSVKGRFTISRDNAKNTVYLQMNSLKPEDTAVFDCHFWYGSWGQGTQVTVSS | low polyreactivity
QVQLVESGGGLVQAGGSLRLSCAASGSTFPPNTMGWYRQAPGKERELVAAITQRGGNTYYADSVKGRFTISRDNAKNTVYLQMNSLKPEDTAVYYCATRYRYKGYYGQYEYWGQGTQVTVSS | high polyreactivity
QVQLVESGGGLVQAGGSLRLSCAASGSIFDSNAMGWYRQAPGKERELVATISSVGSTNYADSVKGRFTISRDNAKNTVYLQMNSLKPEDTAVYYCARVVDAQGYYSAASGGYYWGQGTQVTVSS | low polyreactivity
QVQLVESGGGIVQAGVSLRLSCAASGRTFWTNAMGWYRQAPGKERELVAVISTTTGNTYYADSVKGRFTISRDNAKNTVYLQMNSLKPEDTAVYYCNTRTGAFFLSKPYYYWGQGTQVTVSS | low polyreactivity
QVQLVESGGGLVQAGGSLRLSCAASGRIFTGYAMGWYRQAPGKERELVAAISSSGGTTYYADSVKGRFTISRDNAKNTVYLQMNSLKPEDTAVYYCATDYSYSVDALKYLLYDYWGQGTQVTVSS | low polyreactivity
